Data from patent US20220356266A1 (Janssen / Centocor, published 2022).
Positions count from the first letter of the chain named.

How the values were obtained:
Test in all cases: cell-based or functional assay
[1] = molecular target: PSMA on C42B and LNCap cells (UniProt Q04609 1-750, limits assumed)
KLK2 on VCaP cells [2] = molecular target: T1, KLK2 on VCaP cells (UniProt P20151 25-261, limits assumed)
KLK2 on VCaP cells [3] = molecular target: T1, KLK2 on VCaP cells; remark: listed apart in the source

Chain of PSMA on C42B and LNCap cells (Q04609 whole entry): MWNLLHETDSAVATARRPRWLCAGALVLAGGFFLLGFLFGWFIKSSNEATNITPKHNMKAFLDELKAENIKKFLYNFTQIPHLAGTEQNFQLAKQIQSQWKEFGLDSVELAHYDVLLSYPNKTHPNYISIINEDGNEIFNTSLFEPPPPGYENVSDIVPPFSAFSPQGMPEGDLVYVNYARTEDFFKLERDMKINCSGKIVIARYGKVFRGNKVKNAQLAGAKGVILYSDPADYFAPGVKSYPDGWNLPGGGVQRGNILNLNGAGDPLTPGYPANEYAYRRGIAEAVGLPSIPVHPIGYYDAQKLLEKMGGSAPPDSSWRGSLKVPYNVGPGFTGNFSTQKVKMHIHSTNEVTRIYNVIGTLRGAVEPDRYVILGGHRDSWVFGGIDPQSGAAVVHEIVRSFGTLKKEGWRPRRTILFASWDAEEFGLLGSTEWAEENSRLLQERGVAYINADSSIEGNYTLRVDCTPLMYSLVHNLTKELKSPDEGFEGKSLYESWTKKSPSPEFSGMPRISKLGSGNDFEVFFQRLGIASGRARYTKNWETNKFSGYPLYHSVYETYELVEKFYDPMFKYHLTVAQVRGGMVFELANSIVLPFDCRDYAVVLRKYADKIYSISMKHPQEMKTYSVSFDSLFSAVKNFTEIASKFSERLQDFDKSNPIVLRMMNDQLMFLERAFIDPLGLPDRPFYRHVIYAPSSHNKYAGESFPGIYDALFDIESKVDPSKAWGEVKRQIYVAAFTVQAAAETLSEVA
T1 sequence (P20151 25-261 limits assumed): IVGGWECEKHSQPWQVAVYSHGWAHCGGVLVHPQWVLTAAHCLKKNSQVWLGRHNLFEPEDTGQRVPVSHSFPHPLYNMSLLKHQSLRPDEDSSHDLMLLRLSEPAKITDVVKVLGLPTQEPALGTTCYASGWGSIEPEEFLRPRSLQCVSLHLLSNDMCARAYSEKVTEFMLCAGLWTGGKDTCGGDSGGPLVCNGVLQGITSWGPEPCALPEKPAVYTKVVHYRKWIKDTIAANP

B1: PSMB952 (antibody, V domains shown)
VH: EVQLVESGGGLVQPGGSLRLSCAASGFTFSSYAMSWVRQAPGKGLEWVSAISGGIGSTYYADSVKGRFTISRDNSKNTLWLQMNSLRAEDTAVYYCAKDGVGATPYYFDYWGQGTLVTVSS
VL: QSVLTQPPSVSAAPGQKVTISCSGSSSNIGINYVSWYQQLPGTAPKLLIYDNNKRPSGIPDRFSGSKSGTSATLGITGLQTGDEADYYCGTWDSSLSAVVFGGGTKLTVL
In vitro ADCC killing EC50 (M), NK cells at 24 hour, C42B cells [1]: 2.45e-11 M | In vitro ADCC killing EC50 (M), NK cells at 24 hour, LNCap cells [1]: 4.59e-11 M | In vitro ADCC killing EC50 (M), PBMC at 6 hour, C42B cells [1]: 3.51e-10 M | In vitro ADCC killing EC50 (M), PBMC at 6 hour, LNCap cells [1]: 2.01e-10 M

B2: PSMB956 (antibody, V domains shown)
VH: B1 VH with I55S, W80Y, T91S
VL: B1 VL
In vitro ADCC killing EC50 (M), NK cells at 24 hour, C42B cells [1]: 9.96e-12 M | In vitro ADCC killing EC50 (M), NK cells at 24 hour, LNCap cells [1]: 3.58e-11 M | In vitro ADCC killing EC50 (M), PBMC at 6 hour, C42B cells [1]: 4.23e-10 M | In vitro ADCC killing EC50 (M), PBMC at 6 hour, LNCap cells [1]: 1.52e-10 M

B3: KL2B870 (KL2B30 in hIgG1-RE) (antibody)
heavy: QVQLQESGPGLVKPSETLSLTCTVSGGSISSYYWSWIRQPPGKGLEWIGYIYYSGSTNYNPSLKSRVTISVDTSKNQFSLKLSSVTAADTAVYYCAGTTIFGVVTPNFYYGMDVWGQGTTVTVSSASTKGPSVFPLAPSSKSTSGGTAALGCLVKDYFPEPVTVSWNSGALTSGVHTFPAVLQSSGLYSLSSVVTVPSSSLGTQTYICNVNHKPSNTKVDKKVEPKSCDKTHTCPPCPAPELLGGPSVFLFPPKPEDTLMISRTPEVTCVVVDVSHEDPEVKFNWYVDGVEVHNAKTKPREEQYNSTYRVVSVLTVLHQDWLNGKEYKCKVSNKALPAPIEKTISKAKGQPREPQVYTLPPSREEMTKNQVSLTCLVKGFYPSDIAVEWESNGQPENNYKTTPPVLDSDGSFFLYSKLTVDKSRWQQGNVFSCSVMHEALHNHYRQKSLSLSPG
light: DIQMTQSPSFLSASVGDRVTITCRASQGISSYLAWYQQKPGKAPKFLIYAASTLQSGVPSRFSGSGSGTEFTLTISSLQPEDFATYYCQQLNSYPLTFGGGTKVEIKRTVAAPSVFIFPPSDEQLKSGTASVVCLLNNFYPREAKVQWKVDNALQSGNSQESVTEQDSKDSTYSLSSTLTLSKADYEKHKVYACEVTHQGLSSPVTKSFNRGEC
ADCC activity, percent cell killing of VcaP cells by PBMC (KLK2 on VCaP cells [2]): ~73% | EC50 (M), in vitro ADCC dose-response killing by PBMC on VcaP cells at 48 hour (KLK2 on VCaP cells [3]): 1e-09 M

B4: KL2B872.CLF (antibody, human IgG1, kappa)
heavy: not shown
light: B3 light
modifications: low fucosylation of the Asn-297-linked N-oligosaccharide (expressed in fucosylation-deficient cells)
ADCC activity, percent cell killing of VcaP cells by PBMC (KLK2 on VCaP cells [2]): ~85% | EC50 (M), in vitro ADCC dose-response killing by PBMC on VcaP cells at 48 hour (KLK2 on VCaP cells [3]): 4.12e-10 M

B5: KL2B870.CLF (antibody, human IgG1, kappa)
heavy: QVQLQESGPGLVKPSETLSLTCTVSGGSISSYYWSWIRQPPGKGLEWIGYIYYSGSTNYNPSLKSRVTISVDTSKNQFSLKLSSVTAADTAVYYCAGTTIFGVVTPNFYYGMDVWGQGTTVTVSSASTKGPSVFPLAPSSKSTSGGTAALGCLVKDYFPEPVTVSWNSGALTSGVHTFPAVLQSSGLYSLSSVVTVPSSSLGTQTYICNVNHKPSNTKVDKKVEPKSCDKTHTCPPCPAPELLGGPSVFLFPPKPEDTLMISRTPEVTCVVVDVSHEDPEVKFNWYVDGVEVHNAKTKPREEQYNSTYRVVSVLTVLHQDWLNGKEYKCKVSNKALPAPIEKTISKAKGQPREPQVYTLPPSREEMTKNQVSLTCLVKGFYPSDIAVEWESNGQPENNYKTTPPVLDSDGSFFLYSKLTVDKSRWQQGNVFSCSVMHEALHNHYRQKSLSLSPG
light: B3 light
modifications: low fucosylation of the Asn-297-linked N-oligosaccharide (expressed in fucosylation-deficient cells)
ADCC activity, percent cell killing of VcaP cells by PBMC (KLK2 on VCaP cells [2]): ~89% | EC50 (M), in vitro ADCC dose-response killing by PBMC on VcaP cells at 48 hour (KLK2 on VCaP cells [3]): 3.54e-10 M
